Measured values as given in patent US20140206846A1 (published 2014).

Key:
VEGF = target: T1, VEGF (human, UniProt P15692 27-191); experiment: Biacore
T1 chain: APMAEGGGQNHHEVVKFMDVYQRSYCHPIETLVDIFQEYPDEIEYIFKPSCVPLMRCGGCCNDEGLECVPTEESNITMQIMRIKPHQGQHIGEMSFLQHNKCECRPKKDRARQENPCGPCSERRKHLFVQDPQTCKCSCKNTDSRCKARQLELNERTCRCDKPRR

IL6 = IL6 (human, UniProt P05231 30-212); experiment: Biacore
MBP = experiment: Biacore
GST = experiment: Biacore
human IL6 [1] = target: T2, human IL6 (human, UniProt P05231 30-212); experiment: Biacore; captured on GMCSF
T2 sequence (P05231 30-212): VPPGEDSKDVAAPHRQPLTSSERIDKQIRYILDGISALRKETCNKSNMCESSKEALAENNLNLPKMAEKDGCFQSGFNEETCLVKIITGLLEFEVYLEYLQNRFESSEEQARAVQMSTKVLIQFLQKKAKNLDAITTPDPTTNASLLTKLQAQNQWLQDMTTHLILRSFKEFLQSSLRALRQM

human IL6 [2] = target: T2, human IL6; experiment: Biacore; captured on anti-LC
human IL6 [3] = target: T2, human IL6; experiment: Biacore

Chain of IL6 (P05231 30-212): as above

B1: IL6 P (Fab, V domains shown)
VH: EVQLVESGGGLVQPGGSLRLSCAASGFTFSSYAMSWIRQAPGKGLEWIGQISGSGGSTVYNYNVLGRFTISRDNSKNTLYLQMNSLRAEDTAVYYCARDSGYFDIWGQGTLVTVSS
VL: NIQKTQSPSSLSASVGDRVTITCRALWHISSYLAWYQQKPGKAPKLLIYAASSLYSGVPSRFSGSGSGTDFTLTISSLQPEDFATYYCQQYSGLPYTFGQGTKVEIKR
With B1 the koff (VEGF) was 0.00204 s⁻¹ and the koff (IL6) was 0.00413 s⁻¹.

B2: Fab DT3 (bispecific antibody, V domains shown)
VH: WVQLVESGGGLVQPGGSLRLSCAARGFPFSHYAMSWIRQAPGKGLEWIGQISGSGGSTWYNHDIKGRFTISRDNSKNTLYLQMNSLRAEDTAVYYCARDSGYFDWWGQGTLVTVSS
VL: GIQMTQSPSSLSASVGDRVTITCRARWYISSYLAWYQQKPGKAPKLLIFAASRLILNVPSRFSGSGSGKDFTLTISSLQPEDFATYYCQQYSELPYTFGQGTKVEIK
B2 showed a Kd (MBP) of 313 nM and a Kd (GST) of 17 nM.

B3: GH6L (bispecific antibody, V domains shown)
VH: WVQLVESGGGLVQPGGSLRLSCAAKGALFSTYAMSWIRQAPGKGLEWIGQISGSGGSTVYNYNVLGRFTISRDNSKNTLYLQMNSLRAEDTAVYYCARDSGYFDIWGQGTLVTVSS
VL: ATQRTQSPSSLSASVGDRVTITCRALWHISSYLAWYQQKPGKAPKLLIYAASWLYWDVPSRFSGSGSGTDFTLTISSLQPEDFATYYCQQYSGLPYTFGQGTKVEIK
Work on B3 yielded a Kd (human IL6 [1]) of 18.7 nM and a Kd (human IL6 [2]) of 30.4 nM.

B4: VH6L (bispecific antibody, V domains shown)
VH: YYQLVESGGGLVQPGGSLRLSCAADGFLFSGYAMSWIRQAPGKGLEWIGQISGSGGSTVYNYNVLGRFTISRDNSKNTLYLQMNSLRAEDTAVYYCARDTGYFDHWGQGTLVTVSS
VL: NIQKTQSPSSLSASVGDRVTITCRALWHISSYLAWYQQKPGKAPKLLIYAASHLHYGVPSRFSGSGSGTDFTLTISSLQPEDFATYYCQQYSGLPYTFGQGTKVEIK
B4 showed a koff (human IL6 [3]) of 0.00472 s⁻¹.
